No end group written: not given here.
B1: monoclonal antibody NB117-2F4 (antibody, mouse IgG2b, kappa, V domains shown)
VH: EVQLQESGPSLVKPSQTLSLTCSVTGDSITSGFWSWIRKFPGNKLEFMGYIKYSGDTYFNPSLKSRISITRDTSKNQYYLQLNSVTPEDTATYYCSDMDYWGQGTSVTVSS
VL: DVVMTQTPRSLPVSLGDQASISCRSSQSLVHNNGNTYLHWYLQMPGQSPKLLIYKVSNRFSGVPDRFSGSGSGTDFTLKISRVEAEDLGVYFCSQITHVPWTFGGGTKLEIKR
notes: also called mAb
B2: selection peptide GIATKGLNGP (peptide)
peptide: H-GIATKGLNGP

What was measured:
[1] = target: T1, biotinylated synthetic peptide GIATKGLNGP-k(Biotin) (human, not fully specified (C-terminus); also: lowercase k not explained); assay: competitive ELISA, biotinylated peptide on streptavidin plate (FIG. 1 legend)
T1 construct: Captured on streptavidin-coated microplates; also called biotinylated peptide; coater peptide
T1 peptide: H-GIATKGLNGP
Description: (§1) A purified monoclonal antibody was first tested for peptide-binding specificity by three synthetic peptides, selection peptide ([…]; SEQ ID NO: 1), elongation of the selection peptide ([…]; SEQ ID NO: 3) and truncation of the selection peptide ([…]; SEQ ID NO: 4), and then used in a competitive immunoassay. After optimization with buffer, temperature, incubation time and concentrations for key reagents, the final protocol for detection of ⁴⁷⁹GIATKG (SEQ ID NO: 2) assay was developed as follows: a 96-well streptavidin pre-coated micro plate was coated with 1 ng/ml biotinylated peptide, […]-k(Biotin) (SEQ ID NO: 5) dissolved in 50 mM PBS-BTB buffer (phosphate-buffered saline with bovine serum albumin and Tween-20, pH7.4) for 30 min at 20° C. Then, the plate was washed 5 times by standard wash buffer (20 mM Tris, 50 mM NaCl, pH 7.2). 20 μL of the peptide standards, kit controls or samples were added to appropriate wells, followed by 100 μL of 23 ng/ml monoclonal antibody in 50 mM PBS-BTB buffer containing 5% Osteocalcin EIA Puf-Liq (Roche diagnostics, Germany), and incubated overnight (20±1 hr) at 4° C. After 5 times wash, 100 μL of goat anti-mouse secondary antibody (115-035-003, Jackson ImmunoResearch) was added and incubated for 1 hr at 20° C. […] The colorimetric reaction was stopped by adding 100 μL stopping solution (1% H₂SO₄) and measured at 450 nm with 650 nm as the reference.

[2] = target: B2; assay: competitive ELISA, displacement of 2F4 from the coated biotinylated peptide
Description: (§2) A purified monoclonal antibody was first tested for peptide-binding specificity by three synthetic peptides, selection peptide ([…]; SEQ ID NO: 1), elongation of the selection peptide ([…]; SEQ ID NO: 3) and truncation of the selection peptide ([…]; SEQ ID NO: 4), and then used in a competitive immunoassay. After optimization with buffer, temperature, incubation time and concentrations for key reagents, the final protocol for detection of ⁴⁷⁹GIATKG (SEQ ID NO: 2) assay was developed as follows: a 96-well streptavidin pre-coated micro plate was coated with 1 ng/ml biotinylated peptide, […]-k(Biotin) (SEQ ID NO: 5) dissolved in 50 mM PBS-BTB buffer (phosphate-buffered saline with bovine serum albumin and Tween-20, pH7.4) for 30 min at 20° C. Then, the plate was washed 5 times by standard wash buffer (20 mM Tris, 50 mM NaCl, pH 7.2). 20 μL of the peptide standards, kit controls or samples were added to appropriate wells, followed by 100 μL of 23 ng/ml monoclonal antibody in 50 mM PBS-BTB buffer containing 5% Osteocalcin EIA Puf-Liq (Roche diagnostics, Germany), and incubated overnight (20±1 hr) at 4° C. After 5 times wash, 100 μL of goat anti-mouse secondary antibody (115-035-003, Jackson ImmunoResearch) was added and incubated for 1 hr at 20° C. After this step, the plate was washed for 5 times with wash buffer. Finally, 100 μL 3,3′,5,5′-tetramethylbenzidine (TMB) was added to each well and incubated for 15 min at 20° C. in the dark. The colorimetric reaction was stopped by adding 100 μL stopping solution (1% H₂SO₄) and measured at 450 nm with 650 nm as the reference.

[3] = target: T2, elongation of the selection peptide AGIATKGLNGP (human); assay: as above
T2 construct: Synthetic peptide: the selection peptide with one alanine added at the N-terminus; also called elongated peptide; N-extended elongated version
T2 peptide: AGIATKGLNGP
Description: as §2

[4] = target: T3, truncation of the selection peptide IATKGLNGP (human); assay: as above
T3 construct: Synthetic peptide: the selection peptide without its N-terminal glycine; also called truncated peptide; N-truncated shortened version
T3 peptide: IATKGLNGP
Description: as §2

[5] = target: B1; assay: competitive ELISA (Col10neo): peptide standard competes with the coated …-k(Biotin) for 2F4
Description: as §1, with “7.2).” for “7.2). 20 μL of the peptide standards, kit controls or samples were added to appropriate wells, followed by 100 μL of 23 ng/ml monoclonal antibody in 50 mM PBS-BTB buffer containing 5% Osteocalcin EIA Puf-Liq (Roche diagnostics, Germany), and incubated overnight (20±1 hr) at 4° C. After 5 times wash, 100 μL of goat anti-mouse secondary antibody (115-035-003, Jackson ImmunoResearch) was added and incubated for 1 hr at 20° C.”
The inter- and intra-plate variation were determined by 10 independent runs of quality control panel (three human sera and two peptide standard) in duplicate. The lower limit of detection (LLOD) was calculated as 3SD of the mean value of 21 zero standard. […] Percent recovery was calculated as the measured concentration divided by the expected concentration corrected for dilution.

B1: binds [1]; binds [2]; no binding (tested: 1000 ng/mL) [3]. B1: no binding (tested: 1000 ng/mL) [4].

With B2 the IC50 [5] was 0.0419 µg/mL.

— patent US20220146528A1 (NORDIC BIOSCIENCE A S, published 2022)
